From article PMC5433770, “Effect of N-terminal region of nuclear Drosophila melanogaster small heat shock protein DmHsp27 on function and quaternary structure” (PLoS ONE, 2017)
Numbering of substitutions follows the chain as printed. Numbers in names are those of the source.

B1: DmHsp27 with deletion of the first 86 amino acids of the N-terminal region (Del_Nter) (domain or fragment, Drosophila melanogaster, UniProt P02518 87-213, looked up)
chain: KDGFQVCMDVSQFKPNELTVKVVDNTVVVEGKHEEREDGHGMIQRHFVRKYTLPKGFDPNEVVSTVSSDGVLTLKAPPPPSKEQAKSERIVQIQQTGPAHLSVKAPAPEAGDGKAENGSGEKMETSK
notes: DmHsp27 (Hsp27), Drosophila melanogaster, without the first 86 amino acids (N-terminal region); The Del-NTR forward primer carries an ATG before the codon of residue 87, so an added Met probably precedes residue 87 (surmise); also called DmHsp27Del-NTR; source: E. coli BL21 (DE3) pLysS, purified (Ni-NTA, SEC on Superose 6)
B2: Drosophila melanogaster small heat shock protein DmHsp27, wild type (natural protein, UniProt P02518 1-213, looked up)
chain: MSIIPLLHLARELDHDYRTDWGHLLEDDFGFGVHAHDLFHPRRLLLPNTLGLGRRRYSPYERSHGHHNQMSRRASGGPNALLPAVGKDGFQVCMDVSQFKPNELTVKVVDNTVVVEGKHEEREDGHGMIQRHFVRKYTLPKGFDPNEVVSTVSSDGVLTLKAPPPPSKEQAKSERIVQIQQTGPAHLSVKAPAPEAGDGKAENGSGEKMETSK
notes: DmHsp27 (Hsp27), Drosophila melanogaster, wild-type cDNA; also called DmHsp27WT; Drosophila melanogaster Hsp27; source: E. coli BL21 (DE3) pLysS, purified (Ni-NTA, SEC on Superose 6)
B3: DmHsp27 S75A (natural protein, Drosophila melanogaster, UniProt P02518 1-213, looked up)
chain: B2 chain with S75A
notes: DmHsp27 (Hsp27), Drosophila melanogaster, with S75A; source: E. coli BL21 (DE3) pLysS, purified (Ni-NTA, SEC on Superose 6)
B4: DmHsp27 S58D (natural protein, Drosophila melanogaster, UniProt P02518 1-213, looked up)
chain: B2 chain with S58D
notes: DmHsp27 (Hsp27), Drosophila melanogaster, with S58D; also called phosphomimetic mutant; source: E. coli BL21 (DE3) pLysS, purified (Ni-NTA, SEC on Superose 6)
B5: DmHsp27 F29Y (natural protein, Drosophila melanogaster, UniProt P02518 1-213, looked up)
chain: B2 chain with F29Y
notes: DmHsp27 (Hsp27), Drosophila melanogaster, with F29Y; source: E. coli BL21 (DE3) pLysS, purified (Ni-NTA, SEC on Superose 6)
B6: DmHsp27 G32A (natural protein, Drosophila melanogaster, UniProt P02518 1-213, looked up)
chain: B2 chain with G32A
notes: DmHsp27 (Hsp27), Drosophila melanogaster, with G32A; source: E. coli BL21 (DE3) pLysS, purified (Ni-NTA, SEC on Superose 6)
B7: DmHsp27 S58/75D (natural protein, Drosophila melanogaster, UniProt P02518 1-213, looked up)
chain: B2 chain with S58D, S75D
notes: DmHsp27 (Hsp27), Drosophila melanogaster, with S58D and S75D; also called phosphomimetic mutant; source: E. coli BL21 (DE3) pLysS, purified (Ni-NTA, SEC on Superose 6)
B8: DmHsp27 S58/75A (natural protein, Drosophila melanogaster, UniProt P02518 1-213, looked up)
chain: B2 chain with S58A, S75A
notes: DmHsp27 (Hsp27), Drosophila melanogaster, with S58A and S75A; source: E. coli BL21 (DE3) pLysS, purified (Ni-NTA, SEC on Superose 6)
B9: DmHsp27 S58A (natural protein, Drosophila melanogaster, UniProt P02518 1-213, looked up)
chain: B2 chain with S58A
notes: DmHsp27 (Hsp27), Drosophila melanogaster, with S58A; source: E. coli BL21 (DE3) pLysS, purified (Ni-NTA, SEC on Superose 6)
B10: DmHsp27 F31A (natural protein, Drosophila melanogaster, UniProt P02518 1-213, looked up)
chain: B2 chain with F31A
notes: DmHsp27 (Hsp27), Drosophila melanogaster, with F31A; source: E. coli BL21 (DE3) pLysS, purified (Ni-NTA, SEC on Superose 6)
B11: DmHsp27 F31Y (natural protein, Drosophila melanogaster, UniProt P02518 1-213, looked up)
chain: B2 chain with F31Y
notes: DmHsp27 (Hsp27), Drosophila melanogaster, with F31Y; source: E. coli BL21 (DE3) pLysS, purified (Ni-NTA, SEC on Superose 6)
B12: DmHsp27 F29A (natural protein, Drosophila melanogaster, UniProt P02518 1-213, looked up)
chain: B2 chain with F29A
notes: DmHsp27 (Hsp27), Drosophila melanogaster, with F29A; source: E. coli BL21 (DE3) pLysS, purified (Ni-NTA, SEC on Superose 6)
B13: DmHsp27 S75D (natural protein, Drosophila melanogaster, UniProt P02518 1-213, looked up)
chain: B2 chain with S75D
notes: DmHsp27 (Hsp27), Drosophila melanogaster, with S75D; also called phosphomimetic mutant; source: E. coli BL21 (DE3) pLysS, purified (Ni-NTA, SEC on Superose 6)
B14: DmHsp27 G30R (natural protein, Drosophila melanogaster, UniProt P02518 1-213, looked up)
chain: B2 chain with G30R
notes: DmHsp27 (Hsp27), Drosophila melanogaster, with G30R; source: E. coli BL21 (DE3) pLysS, purified (Ni-NTA, SEC on Superose 6)
B15: DmHsp27 G32R (natural protein, Drosophila melanogaster, UniProt P02518 1-213, looked up)
chain: B2 chain with G32R
notes: DmHsp27 (Hsp27), Drosophila melanogaster, with G32R; source: E. coli BL21 (DE3) pLysS, purified (Ni-NTA, SEC on Superose 6)
B16: DmHsp27 G30A (natural protein, Drosophila melanogaster, UniProt P02518 1-213, looked up)
chain: B2 chain with G30A
notes: DmHsp27 (Hsp27), Drosophila melanogaster, with G30A; source: E. coli BL21 (DE3) pLysS, purified (Ni-NTA, SEC on Superose 6)
B17: DmHsp27 with deletion of the FGFG motif (29-32) (del_FGFG) (natural protein, Drosophila melanogaster, UniProt P02518 1-213, looked up)
chain: MSIIPLLHLARELDHDYRTDWGHLLEDDVHAHDLFHPRRLLLPNTLGLGRRRYSPYERSHGHHNQMSRRASGGPNALLPAVGKDGFQVCMDVSQFKPNELTVKVVDNTVVVEGKHEEREDGHGMIQRHFVRKYTLPKGFDPNEVVSTVSSDGVLTLKAPPPPSKEQAKSERIVQIQQTGPAHLSVKAPAPEAGDGKAENGSGEKMETSK
notes: DmHsp27 (Hsp27), Drosophila melanogaster, without the four residues F29 to G32 (FGFG); also called deletion FGFG (29–32); DmHsp27Del29-32; source: E. coli BL21 (DE3) pLysS, purified (Ni-NTA, SEC on Superose 6)

Target: the molecule itself
Experiment: native gel or EMSA; 4–12% gradient native Tris-Glycine gel; samples kept and gel run at room temperature (20°C), 150 V, Coomassie blue stain

Binding result, binds:
B1
B2
B3
B4
B5
B6
B7
B8
B9
B10
B11
B12
B13
B14
B15
B16
B17
